Values of other authors in PMC3249237.

Target: LRP6 E1E2 (Homo sapiens) (UniProt O75581)
Sequence (O75581 20-630): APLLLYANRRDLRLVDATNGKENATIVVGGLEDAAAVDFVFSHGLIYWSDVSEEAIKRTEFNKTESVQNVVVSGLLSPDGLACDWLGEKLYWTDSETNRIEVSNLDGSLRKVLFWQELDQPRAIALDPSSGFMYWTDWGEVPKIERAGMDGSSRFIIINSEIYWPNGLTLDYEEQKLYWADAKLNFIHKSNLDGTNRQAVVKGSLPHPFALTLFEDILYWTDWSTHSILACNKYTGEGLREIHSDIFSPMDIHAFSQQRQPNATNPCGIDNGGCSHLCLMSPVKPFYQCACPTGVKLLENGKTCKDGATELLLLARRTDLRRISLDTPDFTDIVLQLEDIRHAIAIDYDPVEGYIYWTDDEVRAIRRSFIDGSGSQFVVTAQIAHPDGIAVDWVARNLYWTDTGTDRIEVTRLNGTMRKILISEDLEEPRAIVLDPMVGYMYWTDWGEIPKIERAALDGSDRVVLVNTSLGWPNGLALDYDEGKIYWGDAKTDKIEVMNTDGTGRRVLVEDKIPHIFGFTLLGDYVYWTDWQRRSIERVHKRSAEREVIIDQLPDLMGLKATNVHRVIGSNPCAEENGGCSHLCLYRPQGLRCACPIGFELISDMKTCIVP

Sequence of DKK1 (O94907 32-266): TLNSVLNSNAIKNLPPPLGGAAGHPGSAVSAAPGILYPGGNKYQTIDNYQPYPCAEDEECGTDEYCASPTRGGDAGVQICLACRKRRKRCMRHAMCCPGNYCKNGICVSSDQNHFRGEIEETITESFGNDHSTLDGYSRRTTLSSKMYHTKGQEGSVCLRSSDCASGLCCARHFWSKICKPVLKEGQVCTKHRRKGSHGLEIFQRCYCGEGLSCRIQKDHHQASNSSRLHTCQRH

Substance: DKK1 (from UniProt O94907)
- Kd: 64 nM
